# Results reported in patent publication US20100120695A1 (University of Pennsylvania, published 2010).
# Square brackets hold non-standard residues; d marks the D form. Ends that are not written are not given here. AEEA = NCCOCCOCC(=O)O
# T1: αV-TM-coum (coumarin label (site not stated))
# T1 peptide: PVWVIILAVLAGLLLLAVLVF
# T2: fluorescein-5-isothiourea-tagged αIIb-TM (fluorescein-5-isothiourea (FITC) attached via an ε-aminohexanoic acid linker to the N-terminus)
# T2 construct: also called FITC-αIIb-TM; αIIb-TM-FITC
# T2 peptide: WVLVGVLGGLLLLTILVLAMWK
# How the values were obtained:
# [1] = molecular target: integrin αVβ3 on human platelets (human, UniProt P06756 31-1048; P05106 27-788); test: cell-based or functional assay
# αV-TM-coum = molecular target: T1, αV-TM-coum; test: analytical ultracentrifugation, equilibrium sedimentation, heterodimer, 1:1 mixture in 5 mM C14-betaine micelles
# Description: (§1) Equilibrium sedimentation was used primarily to determine the association state of the peptides, but also to provide a rough estimate of the heterodimeric association constants. […] Peptides were co-dissolved in CF₃CH₂OH (Sigma-Aldrich, St. Louis, Mo.) and C14-betaine (3-(N,N-dimethylmyristyl-ammonio)propanesulfonate; Sigma-Aldrich, St. Louis, Mo.). […] The final concentration of C-14 betaine is 5 mM in the samples. Samples were prepared in a total peptide concentration of 50 μM (in case of heterodimer formation, a 1:1 mixture was prepared) and incubated overnight. Data at three measurement speeds (40, 45, and 50 KRPM for αIIb peptides and 30, 35, and 40 KRPM for the αv peptides) were analyzed by global curve-fitting of radial concentration gradients (measured using optical absorption) (FIG. 8a-8f) to the sedimentation equilibrium equation for monomer-dimer equilibria among the peptides included in the solution. […] Aqueous solution molar extinction coefficients at 280 nm were calculated using the program Sednterp. […] These coefficients were multiplied by the molar detergent concentration to provide mole ratio concentration units.
# (§2) Ultracentrifugation data (FIG. 8) were first collected for the individual peptides.
# [2] = molecular target: the molecule itself; test: analytical ultracentrifugation, equilibrium sedimentation, homodimer, 5 mM C14-betaine micelles
# Description: as §1, §2
# [3] = molecular target: T2, fluorescein-5-isothiourea-tagged αIIb-TM; test: analytical ultracentrifugation, equilibrium sedimentation, heterodimer, 1:1 mixture in 5 mM C14-betaine micelles
# Description: as §1, §2
# Sequence of integrin αVβ3 on human platelets (P06756 31-1048, chain 1 of 2): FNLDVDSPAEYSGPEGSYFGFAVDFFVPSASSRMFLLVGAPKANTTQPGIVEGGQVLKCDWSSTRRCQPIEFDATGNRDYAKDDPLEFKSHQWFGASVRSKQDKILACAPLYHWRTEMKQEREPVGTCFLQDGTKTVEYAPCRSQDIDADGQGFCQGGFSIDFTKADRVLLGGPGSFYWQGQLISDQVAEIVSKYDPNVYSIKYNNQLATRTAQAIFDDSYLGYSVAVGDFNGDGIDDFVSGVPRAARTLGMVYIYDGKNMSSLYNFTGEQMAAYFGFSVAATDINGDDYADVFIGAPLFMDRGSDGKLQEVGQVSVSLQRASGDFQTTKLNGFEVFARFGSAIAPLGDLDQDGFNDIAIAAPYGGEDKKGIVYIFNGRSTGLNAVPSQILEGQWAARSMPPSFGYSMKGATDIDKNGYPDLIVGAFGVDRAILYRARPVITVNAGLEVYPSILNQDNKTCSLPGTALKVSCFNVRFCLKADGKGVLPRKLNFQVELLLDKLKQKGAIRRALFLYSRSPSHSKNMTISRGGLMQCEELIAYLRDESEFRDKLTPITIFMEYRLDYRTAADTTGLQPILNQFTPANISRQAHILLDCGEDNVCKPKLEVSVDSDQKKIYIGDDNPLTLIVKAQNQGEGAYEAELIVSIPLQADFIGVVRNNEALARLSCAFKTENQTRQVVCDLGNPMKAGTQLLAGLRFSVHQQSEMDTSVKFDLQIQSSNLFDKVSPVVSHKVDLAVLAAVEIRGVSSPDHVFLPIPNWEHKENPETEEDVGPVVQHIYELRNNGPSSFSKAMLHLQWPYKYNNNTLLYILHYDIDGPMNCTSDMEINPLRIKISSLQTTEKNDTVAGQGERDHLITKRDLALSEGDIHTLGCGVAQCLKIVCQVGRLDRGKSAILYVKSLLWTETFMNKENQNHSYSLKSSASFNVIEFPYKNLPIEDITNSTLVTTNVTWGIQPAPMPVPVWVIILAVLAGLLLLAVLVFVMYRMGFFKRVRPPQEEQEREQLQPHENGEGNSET
# Sequence of integrin αVβ3 on human platelets (P05106 27-788, chain 2 of 2): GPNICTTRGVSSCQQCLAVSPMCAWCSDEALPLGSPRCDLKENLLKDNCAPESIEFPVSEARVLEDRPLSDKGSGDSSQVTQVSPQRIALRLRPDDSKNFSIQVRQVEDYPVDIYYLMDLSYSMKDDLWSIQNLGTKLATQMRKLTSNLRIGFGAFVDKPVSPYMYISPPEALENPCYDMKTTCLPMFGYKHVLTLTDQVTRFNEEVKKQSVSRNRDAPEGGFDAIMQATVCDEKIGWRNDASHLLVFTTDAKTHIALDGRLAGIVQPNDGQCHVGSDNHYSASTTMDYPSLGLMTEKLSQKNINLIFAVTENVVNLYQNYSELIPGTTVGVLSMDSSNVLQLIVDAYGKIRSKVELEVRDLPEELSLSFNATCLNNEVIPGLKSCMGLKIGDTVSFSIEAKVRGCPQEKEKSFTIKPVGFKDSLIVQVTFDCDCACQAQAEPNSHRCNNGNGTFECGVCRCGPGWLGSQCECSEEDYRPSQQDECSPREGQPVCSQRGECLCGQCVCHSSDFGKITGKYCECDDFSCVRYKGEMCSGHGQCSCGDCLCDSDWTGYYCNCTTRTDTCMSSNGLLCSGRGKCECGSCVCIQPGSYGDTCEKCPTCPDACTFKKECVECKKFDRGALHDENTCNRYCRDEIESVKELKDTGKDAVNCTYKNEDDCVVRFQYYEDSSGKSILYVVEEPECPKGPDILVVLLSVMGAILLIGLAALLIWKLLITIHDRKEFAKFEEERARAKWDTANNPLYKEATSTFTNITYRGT
Binder,Dimerization pKdiss [2],other results
[AEEA]AYVFILLSFILGTLLGFLVMFWA (designed binder) [anti-αV polypeptide],–,fold decrease in potency in inducing platelet adhesion to immobilized osteopontin [1]: ~10 fold; Dimerization pKdiss (αV-TM-coum): > 2 pKdiss (mole ratio units)
"KKAYVMLLPFFIGLLLGLIFGGAFWGPARHLKK (designed binder, also: FITC-labeled, site not given here) [Anti-αIIb (FITC-labeled)]",2.3 pKdiss (mole ratio units),–
"KKAYVMLLPFFIGLLLGLIFGGAFWGPARHLKK (designed binder, also called anti-am) [anti-αIIb polypeptide]",–,Dimerization pKdiss [3]: 2.6 pKdiss (mole ratio units)
PVWVIILAVLAGLLLLAVLVF [αV-TM],0.7 pKdiss (mole ratio units),–
"AYVFILLSFILGTLLGFLVMFWA (designed binder, also: coumarin-labeled, site not given here) [Anti-αV(coumarin-labeled)]",1.4 pKdiss (mole ratio units),–
WVLVGVLGGLLLLTILVLAMWK [αIIb-TM polypeptide],1.8 pKdiss (mole ratio units),–
